Assay results published in article PMC7171158.

Biological target: NusA-AR2^D443C labeled with fluorescein-5-maleimide (E. coli) (UniProt P0AFF6)
Assay: fluorescence polarisation; fluorescence anisotropy; 25 nM fluorescein-labeled NusA-AR2^D443C with increasing unlabeled protein; 25 °C; 50 mM Na-P pH 6.5, 100 mM NaCl, 150 mM glucose, 5 mM DTT, 0.05% Tween; two-state binding model

C-terminal domain of the RNA polymerase α subunit (αCTD) (domain or fragment)
Kd: 8 µM
